{"source": "patent US20120082681A1", "about": "(Novartis, published 2012)", "binders": {"B1": {"name": "mAb7 (MOR11879 with IgG1 LALA Fc variant) (antibody, V domains shown)", "VH": "QVQLVQSGAEVKKPGASVKVSCKASGYTFTGYYMHWVRQAPGQGLEWMGMIGPQHGEAIYAQKFQGRVTMTRDTSISTAYMELSRLRSEDTAVYYCARESTDSDESPFDYWGQGTLVTVSS", "VL": "DIELTQPPSVSVSPGQTASITCSGDNIRSYYVSWYQQKPGQAPVLVIYDDSDRPSGIPERFSGSNSGNTATLTISGTQAEDEADYYCQSYGSHSNFVVFGGGTKLTVLG", "notes": "Human IgG1 L234A L235A (LALA), expressed in HKB11 cells"}, "B2": {"name": "mAb10 (MOR11880 with IgG1 LALA Fc variant) (antibody, V domains shown)", "VH": "B1 VH with E89D", "VL": "B1 VL with D1S, I2Y, P8L, S13A, P14L, S19R, G76R, T77A, E80G", "notes": "as for B1"}, "B3": {"name": "mAb4 (MOR11878 with IgG1 LALA Fc variant) (antibody, V domains shown)", "VH": "QVQLVESGGGVVQPGRSLRLSCAASGFTFTSYGMSWVRQAPGKGLEWVAGISYDASDTEYADSVKGRFTISRDNSKNTLYLQMNSLRAEDTAVYYCARSPDYIIDYGFDYWGRGTLVTVSS", "VL": "AIQMTQSPSSLSASVGDRVTITCRASQGISSDLAWYQQKPGKAPKLLIYDASSLQSGVPSRFSGSGSGTDFTLTISSLQPEDFATYYCQQYWWYPFTFGQGTKVEIKR", "notes": "as for B1"}, "B4": {"name": "mAb1 (MOR11873 with IgG1 LALA Fc variant) (antibody, V domains shown)", "VH": "B3 VH with D54S, A55G", "VL": "B3 VL with W93I", "notes": "as for B1"}, "B5": {"name": "MOR11880 (antibody, V domains shown)", "VH": "B1 VH with E89D", "VL": "B1 VL with D1S, I2Y, P8L, S13A, P14L, S19R, G76R, T77A, E80G", "notes": "Named by its variable regions only; H/DxMS used a representative antibody of the group; also called group mAb10, mAb11, mAb12, mAb16 (MOR11880)"}, "B6": {"name": "MOR11873 (antibody, V domains shown)", "VH": "B3 VH with D54S, A55G", "VL": "B3 VL with W93I", "notes": "Named by its variable regions only; H/DxMS used a representative antibody of the group; also called group mAb1, mAb2, mAb3, mAb13 (MOR11873)"}, "B7": {"name": "MOR11878 (antibody, V domains shown)", "VH": "B3 VH", "VL": "B3 VL", "notes": "Named by its variable regions only; H/DxMS used a representative antibody of the group; also called group mAb4, mAb5, mAb6, mAb14 (MOR11878)"}}, "note": "Where a chain is given by its changes, count along the chain named. Names and notes keep the numbering of the source."}
{"biological_target": "T1, human IL12Rbeta1 polypeptide (soluble receptor/antigen, construct not stated) (human, UniProt P42701 24-545)", "T1 construct": "the whole entry is named; also called IL12Rβ1; the receptor", "assay": "in vitro competitive binding assay (Bioveris/MSD); inhibition of receptor binding to coated IL23", "protocol": "(§1) During the assay procedure, a fixed amount (predetermined to result in near maximum signal) of the receptor was incubated with increasing concentrations (1:100 to 100:1 molar ratio) of purified Fab/IgG in solution. Subsequently, the samples were transferred to a ligand coated and blocked MSD multi-titer plate. The free receptor binds to the ligand and was detected via an appropriate ruthenium complex-labeled antibody and quantified. The concentration of bound receptor as an inverse function of Fab/IgG concentration used for incubation was fitted using the respective model. The inflection point of the fitted curve represents the IC₅₀ value.", "units": {"IC50": "nM"}}
{"binder": "B1", "IC50": 0.02}
{"binder": "B2", "IC50": 0.02}
{"binder": "B3", "IC50": 0.013}
{"biological_target": "T1, human IL12Rbeta1 polypeptide (soluble …)", "assay": "in vitro competitive binding assay (Bioveris/MSD); inhibition of receptor binding to coated IL23; IL23 competitive binding (second number of 8/18)", "protocol": "as §1", "units": {"IC50": "nM"}}
{"binder": "B4", "IC50": 0.018}
{"biological_target": "T2, human IL12Rβ1 naturally expressed on cells (Kit225 cells, human T-cells, human blood cells) (human, UniProt P42701 24-662)", "T2 construct": "also called IL12 receptor beta 1", "assay": "flow cytometry, cell binding on Kit225 (human natural expression)", "protocol": "(§2) Cell binding of selected antibodies is tested using various IL-12Rβ1 expressing cell lines, e.g. Kit 225 or HSC—F, or human and cyno T cell blasts, employing flow cytometry. After incubation with serial antibody dilutions, staining of the cells is quantified by flow cytometric analysis.", "units": {"EC50": "nM"}}
{"binder": "B1", "EC50": 0.01}
{"binder": "B2", "EC50": 0.011}
{"binder": "B4", "EC50": 0.006}
{"binder": "B3", "EC50": 0.005}
{"biological_target": "T1, human IL12Rbeta1 polypeptide (soluble …)", "assay": "in vitro competitive binding assay (Bioveris/MSD); inhibition of receptor binding to coated IL12; IL12 competitive binding (first number of 8/18)", "protocol": "as §1", "units": {"IC50": "nM"}}
{"binder": "B4", "IC50": 0.008}
{"biological_target": "T1, human IL12Rbeta1 polypeptide (soluble …)", "assay": "in vitro competitive binding assay (Bioveris/MSD); inhibition of receptor binding to coated IL12", "protocol": "as §1", "units": {"IC50": "nM"}}
{"binder": "B1", "IC50": 0.008}
{"binder": "B2", "IC50": 0.008}
{"binder": "B3", "IC50": 0.008}
{"biological_target": "T3, cynomolgous IL12Rβ1 naturally expressed on cells (HSC-F cells, cyno T-cells, cyno blood cells) (cynomolgus monkey, UniProt P42701 24-662 (human entry))", "T3 construct": "also called cyno IL12Rβ1", "assay": "flow cytometry, cell binding on HSC-F (cyno natural expression)", "protocol": "as §2", "units": {"EC50": "nM"}}
{"binder": "B1", "EC50": 0.023}
{"binder": "B4", "EC50": 0.023}
{"binder": "B3", "EC50": 0.013}
{"biological_target": "T2, human IL12Rβ1 naturally expressed on …", "assay": "flow cytometry, cell binding on human T-cells (human natural expression)", "protocol": "as §2", "units": {"EC50": "nM"}}
{"binder": "B1", "EC50": 0.015}
{"binder": "B2", "EC50": 0.016}
{"binder": "B4", "EC50": 0.033}
{"binder": "B3", "EC50": 0.038}
{"biological_target": "T4, human IL12Rβ1-Fc-Fusion (human, UniProt P42701 24-545)", "T4 construct": "Captured on an anti-human-Fc chip for SPR; not shown: Fc part of the fusion", "assay": "SPR (Biacore), IL12Rβ1-Fc fusion captured on anti-human-Fc CM5 chip", "excerpt": "For determination of KD values, surface plasmon resonance technology was applied using the Biacore™ technology. Anti-human-Fc-capture CM5 chip (Biacore, Sweden) was used for capturing IL12Rβ1-Fc-Fusion followed by ligand (Fab) injection at different concentrations.", "units": {"Kd": "nM"}}
{"binder": "B1", "Kd": 0.04}
{"binder": "B2", "Kd": 0.04}
{"binder": "B4", "Kd": 0.04}
{"binder": "B3", "Kd": 0.02}
{"biological_target": "T5, cynomolgous monkey IL12Rβ1 (recombinant, construct not stated) (cynomolgus monkey, UniProt P42701 24-545 (human entry), limits assumed)", "T5 construct": "The SPR method describes capture of an IL12Rβ1-Fc fusion, but the cyno construct is not described; the whole entry is named; also called cyno IL12Rβ1; cynomolgus IL12Rbeta1", "assay": "SPR (Biacore), cyno IL12Rβ1", "units": {"Kd": "nM"}}
{"binder": "B1", "Kd": 0.6}
{"binder": "B2", "Kd": 0.6}
{"binder": "B4", "Kd": 0.1}
{"binder": "B3", "Kd": 0.1}
{"biological_target": "T3, cynomolgous IL12Rβ1 naturally expressed …", "assay": "flow cytometry, cell binding on cyno T-cells (cyno natural expression)", "protocol": "as §2", "units": {"EC50": "nM"}}
{"binder": "B1", "EC50": 0.036}
{"binder": "B2", "EC50": 0.028}
{"binder": "B4", "EC50": 0.055}
{"binder": "B3", "EC50": 0.041}
{"biological_target": "T3, cynomolgous IL12Rβ1 naturally expressed …", "assay": "cell-based or functional assay", "units": {"IL12/IL18 dependent IFNγ production In cyno blood cells (IC50, pM)": "pM"}}
{"binder": "B1", "IL12/IL18 dependent IFNγ production In cyno blood cells (IC50, pM)": 284}
{"binder": "B2", "IL12/IL18 dependent IFNγ production In cyno blood cells (IC50, pM)": 1180}
{"binder": "B4", "IL12/IL18 dependent IFNγ production In cyno blood cells (IC50, pM)": 239}
{"binder": "B3", "IL12/IL18 dependent IFNγ production In cyno blood cells (IC50, pM)": 216}
{"biological_target": "T2, human IL12Rβ1 naturally expressed on …", "assay": "cell-based or functional assay", "units": {"IL12/IL18 dependent IFNγ production In human blood cells (IC50, pM)": "pM"}}
{"binder": "B1", "IL12/IL18 dependent IFNγ production In human blood cells (IC50, pM)": 24}
{"binder": "B2", "IL12/IL18 dependent IFNγ production In human blood cells (IC50, pM)": 42}
{"binder": "B4", "IL12/IL18 dependent IFNγ production In human blood cells (IC50, pM)": 28}
{"binder": "B3", "IL12/IL18 dependent IFNγ production In human blood cells (IC50, pM)": 77}
{"biological_target": "T6, mouse IL12Rbeta1 (mouse, UniProt Q60837 20-565, limits assumed)", "T6 construct": "also called murine IL12Rbeta1; rodent IL12Rbeta1 proteins", "T6 sequence (looked up)": "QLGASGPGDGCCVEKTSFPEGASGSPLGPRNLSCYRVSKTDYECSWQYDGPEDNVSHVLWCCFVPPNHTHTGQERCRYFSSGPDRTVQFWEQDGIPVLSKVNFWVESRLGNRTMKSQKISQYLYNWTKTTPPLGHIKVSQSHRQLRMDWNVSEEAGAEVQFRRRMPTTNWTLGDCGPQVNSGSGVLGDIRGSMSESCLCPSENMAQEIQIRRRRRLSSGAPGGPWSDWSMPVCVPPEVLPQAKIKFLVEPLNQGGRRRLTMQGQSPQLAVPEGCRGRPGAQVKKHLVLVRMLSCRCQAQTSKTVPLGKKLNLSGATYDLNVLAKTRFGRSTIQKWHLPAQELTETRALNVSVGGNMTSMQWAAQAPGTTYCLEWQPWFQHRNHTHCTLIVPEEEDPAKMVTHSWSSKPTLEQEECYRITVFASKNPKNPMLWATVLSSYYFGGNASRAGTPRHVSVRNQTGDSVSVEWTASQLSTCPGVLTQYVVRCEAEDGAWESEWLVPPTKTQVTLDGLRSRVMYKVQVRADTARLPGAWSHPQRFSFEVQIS", "assay": "not described"}
{"binder": "B5", "binding result": "no binding"}
{"binder": "B6", "binding result": "no binding"}
{"binder": "B7", "binding result": "no binding"}
